Columns and labels:
[1] = Chromatofocusing on PBE94; type: physicochemical; settings: majority of rIDS (pool B)
Protocol: The rIDS was purified from the collected medium by a 3-step column procedure. The medium was dialysed overnight at 4° C. against 30 mM-Tris/HCl, pH 7.0/10% v/v glycerol/0.1 mM-DTE/3 mM-NaN3 (buffer A) and was applied to a PBE94 column (8 cm×1.5 cm) equilibrated in buffer A (flow-rate 1.0 ml/min) and then washed with 100 ml of buffer A. Bound proteins were […] with polybuffer 74 that had been diltured 1:18 with water, the pH adjusted to 4.0 with HCl and the solution made 10% v/v in glycerol, 0.1 mM-DTE and 3 mM-NaN3. The column was further eluted with 100 ml 15 mM-ditheriothreitol/3 mM-NaN3 (buffer B). The rIDS eluted in buffer B was applied at a flow-rate of 1.0 ml/min to a Blue A agarose column (6 cm×0.7 cm) also equilibrated in buffer B. The rIDS activity from this step was applied in 1.0 ml volumes to an LKB Ultrachrom GTi f.p.l.c. system with a TSK G3000SW Ultrapac column (30 cm×0.8 cm) equilibrated and eluted in buffer B at a flow-rate of 0.5 ml/min and pressure of 150 kPa. Fractions containing rIDS activity were pooled and analysed under denaturing and non-denaturing condition on SDS-PAGE (10% w/v acrylamide) to estimate apparent subunit size. […] Native molecular mass was determined using the f.p.l.c. system as described elsewhere (3) Kinetic (Km, V max, pH optima) and inhibition data were obtained as previously described (3).

[2] = test system: MPS II skin fibroblasts (SF-635); assay: Subcellular fractionation of rIDS-treated cells on Percoll density gradients; type: cell-based, human; settings: corrected MPS II cells; Percoll gradient of post-nuclear supernatant
Protocol: Cells from SF-635 were grown to confluency in 75 cm^2 flasks and then exposed to medium supplemented with 5×10^4 pmol/min per ml rIDS. The cells were incubated for 72 h then harvested and fractionated on Percoll density gradients as described in Anson el al (27). The resulting gradient was collected in 1.0 ml fractions by bottom puncture and the fractions analysed for IDS and β-hexosaminidase activity.

[3] = Catalytic properties of IDS with radiolabelled disaccharide substrate; type: biochemical; settings: for Specific Activity / pH Optimum: IdoA2S-anM6S substrate; for Km / Vmax: IdoA2S-anM6S, 50 mM sodium acetate pH 4.5, 500 μg/ml BSA
Protocol: (§1) Media samples, or cell lysates prepared by six cycles of freeze/thaw in 0.5 M-NaCl/20 mM-Tris/HCl, pH 7.0, were clarified by microcentrifugation (12,000×g, 4° C., 5 min) and were either assayed directly or after dilution in assay buffer. […] IDS was assayed using the radiolabelled disaccharide substrate IdoA2S-anM6S (3). Protein estimations were according to the method of Lowry et al (29).
The rIDS was purified from the collected medium by a 3-step column procedure. The medium was dialysed overnight at 4° C. against 30 mM-Tris/HCl, pH 7.0/10% v/v glycerol/0.1 mM-DTE/3 mM-NaN3 (buffer A) and was applied to a PBE94 column (8 cm×1.5 cm) equilibrated in buffer A (flow-rate 1.0 ml/min) and then washed with 100 ml of buffer A. Bound proteins were […] with polybuffer 74 that had been diltured 1:18 with water, the pH adjusted to 4.0 with HCl and the solution made 10% v/v in glycerol, 0.1 mM-DTE and 3 mM-NaN3. The column was further eluted with 100 ml 15 mM-ditheriothreitol/3 mM-NaN3 (buffer B). The rIDS eluted in buffer B was applied at a flow-rate of 1.0 ml/min to a Blue A agarose column (6 cm×0.7 cm) also equilibrated in buffer B. The rIDS activity from this step was applied in 1.0 ml volumes to an LKB Ultrachrom GTi f.p.l.c. system with a TSK G3000SW Ultrapac column (30 cm×0.8 cm) equilibrated and eluted in buffer B at a flow-rate of 0.5 ml/min and pressure of 150 kPa. Fractions containing rIDS activity were pooled and analysed under denaturing and non-denaturing condition on SDS-PAGE (10% w/v acrylamide) to estimate apparent subunit size. Gels were stained with either Gradipure Colloidal Electrophoresis Gel Stain (Gradipure, Pyrmont, NSW) or silver stained accordinng to the method of Merril et al (32). Native molecular mass was determined using the f.p.l.c. system as described elsewhere (3) Kinetic (Km, V max, pH optima) and inhibition data were obtained as previously described (3).
Although both the liver and rIDS show a similar Km towards the disaccharide substrate (IdoA2S-anM6S) in the standard assay (50 mM sodium acetate pH 4.5 and 500 μg/ml BSA) they have a substantially different V max. […] Alternatively, this may reflect a difference between enzyme produced in CHO cells and in liver. Both the (CHO) recombinant and (liver) mature form of the enzyme have similar pH optima and specific activities (Table 2).

MPS II cells (SF-1779) = assay: Endocytosis of rIDS with or without mannose-6-phosphate; type: cell-based, human; settings: rIDS at 5×10^4 and 5×10^3 pmol/min per ml, 5 mM mannose-6-phosphate
Protocol: Cells from SF-1779 were plated in 20 wells (3.83 cm^2) and allowed to reach confluency. Wells 1 to 4 were untreated controls. To each of wells 5 to 12 and 13 to 20 was added 1.0 ml of medium containing rIDS at 5×10^4 pmol/min per ml and 5×10^3 pmol/min per ml respectively. In addition the medium in wells 9 to 12 and 17 to 20 was made 5 mM mannose-6-phosphate. The cells were then incubated for 6 hours after which time they were rinsed with medium and fresh medium added. The cells were incubated overnight and then harvested, washed and lysed as described above. The cell lysates were dialysed against 5 mM-sodium acetate, pH 4.0, for 16 h at 4° C. and then analysed for IDS activity and total protein.

[4] = test system: MPS II fibroblasts (SF-635 and SF-1779); assay: Correction of MPS II fibroblasts by rIDS; type: cell-based, human; settings: for 35S-cpm/mg Cell Protein / β-Hexosaminidase activity in cell lysate / IDS activity in cell lysate: 5 × 10^4 pmol/min per ml rIDS, 72 hours; for IDS activity in cell lysate: undialysed lysate
Protocol: Human diploid fibroblasts were established from skin biopsies submitted to this hosptial for diagnosis (28). Cell lines were maintained according to established procedures in BME, 10% v/v FCS and antibiotics unless otherwise stated. The two MPS II skin fibroblast cell lines used in this study (SF-635 and SF-1779) both have low residual IDS activity.
as §1
The fluorogenic substrate 4-methylumbelliferyl-2-acetamido-2-deoxy-β-D-glucopyranoside was used to measure β-hexosaminidase activity (31).
For these experiments IDS was obtained from CHOEFI2S-9 cells cultured in CHO-SFM medium suppplemented with 10 mM-NH4C1 and antibiotics. […] Fibroblasts from a normal individual (SF-3409) and from two MPS II patients (SF-635 and SF-1779) were grown to confluency in 25 cm^2 flasks and radiolabelled with Na2^35SO4 as previously described (27). The labelled cells were then exposed to 5×10^4 pmol/min per ml of rIDS for 72 hours. After harvesting the cells by trypsin treatment and washing by centrifugation/resuspension in PBS, the cell pellet was resuspended in 100 μl of 20 mM-Tris/HCl, pH 7.0/0.5 M-NaCl, and the cell lysates prepared as described above. The cell extracts were analysed for IDS activity, total protein, β-hexosaminidase activity and radioactivity.

| Molecule | pI [1] | Subcellular localisation of endocytosed enzyme [2] | Specific Activity [3] | pH Optimum [3] | Km [3] | Vmax [3] | Uptake of IDS activity in presence or absence of mannose-6-phosphate (MPS II cells (SF-1779)) | Clearance of stored 35S-labelled material ([4]; MPS II fibroblasts, rIDS at 5×10^4 pmol/min per ml) | IDS activity level above normal ([4]; SF635, rIDS at 5×10^4 pmol/min per ml) | IDS activity level above normal ([4]; SF1779, rIDS at 5×10^4 pmol/min per ml) | 35S-cpm/mg Cell Protein ([4]; SF-635 cells labelled with Na2 35SO4) | β-Hexosaminidase activity in cell lysate ([4]; SF-635 cells) | IDS activity in cell lysate ([4]; SF-635 cells) | 35S-cpm/mg Cell Protein ([4]; SF-1779 cells labelled with Na2 35SO4) | β-Hexosaminidase activity in cell lysate ([4]; SF-1779 cells) | IDS activity in cell lysate ([4]; SF-1779 cells) | Effect on activity of second lysosomal enzyme β-hexosaminidase ([4]; endocytosis of IDS in MPS II fibroblasts) |
| --- | --- | --- | --- | --- | --- | --- | --- | --- | --- | --- | --- | --- | --- | --- | --- | --- | --- |
| rIDS: Recombinant human iduronate 2-sulfatase, highly glycosylated, secreted by CHO-K1 clonal line CHOEFI2S-9 (protein) SETQANSTTDALNVLLIIVDDLRPSLGCYGDKLVRSPNIDQLASHSLLFQNAFAQQAVCAPSRVSFLTGRRPDTTRLYDFNSYWRVHAGNFSTIPQYFKENGYVTMSVGKVFHPGISSNHTDDSPYSWSFPPYHPSSEKYENTKTCRGPDGELHANLLCPVDVLDVPEGTLPDKQSTEQAIQLLEKMKTSASPFFLAVGYHKPHIPFRYPKEFQKLYPLENITLAPDPEVPDGLPPVAYNPWMDIRQREDVQALNISVPYGPIPVDFQRKIRQSYFASVSYLDTQVGRLLSALDDLQLANSTIIAFTSDHGWALGEHGEWAKYSNFDVATHVPLIFYVPGRTASLPEAGEKLFPYLDPFDSASQLMEPGRQSMDLVELVSLFPTLAGLAGLQVPPRCPVPSFHVELCREGKNLLKHFRFRDLEEDPYLPGNPRELIAYSQYPRPSDIPQWNSDKPSLKDIKIMGYSIRTIDYRYTVWVGFNPDEFLANFSDIHAGELYFVDSDPLQDHNMYNDSQGGDLFQLLMP | < 4.0 | fractionated with the lysosomal enzyme β-hexosaminidase in the dense fraction of the gradient | 20.8 μmol/min per mg | 4.5 | 3 µM | 3.35 μmol/min per mg | uptake is mediated via the mannose-6-phosphate receptor | clearance of this stored product to levels comparable to those seen in control fibroblasts | 80 fold | 40 fold | 9018 ± 1988 cpm/mg | 257 ± 14 nmol/min per mg | 1140 ± 50 pmol/min per mg | 5136 ± 502 cpm/mg | 118 ± 11 nmol/min per mg | 562 ± 99 pmol/min per mg | not affected |
| Liver IDS: Naturally glycosylated mature iduronate 2-sulfatase purified from human liver (protein, UniProt P22304 34-455; P22304 456-550, looked up, natural glycosylation, liver-purified, Naturally glycosylated mature iduronate 2-sulfatase purified from human liver) Iduronate 2-sulfatase 42 kDa …: TDALNVLLIIVDDLRPSLGCYGDKLVRSPNIDQLASHSLLFQNAFAQQAVCAPSRVSFLTGRRPDTTRLYDFNSYWRVHAGNFSTIPQYFKENGYVTMSVGKVFHPGISSNHTDDSPYSWSFPPYHPSSEKYENTKTCRGPDGELHANLLCPVDVLDVPEGTLPDKQSTEQAIQLLEKMKTSASPFFLAVGYHKPHIPFRYPKEFQKLYPLENITLAPDPEVPDGLPPVAYNPWMDIRQREDVQALNISVPYGPIPVDFQRKIRQSYFASVSYLDTQVGRLLSALDDLQLANSTIIAFTSDHGWALGEHGEWAKYSNFDVATHVPLIFYVPGRTASLPEAGEKLFPYLDPFDSASQLMEPGRQSMDLVELVSLFPTLAGLAGLQVPPRCPVPSFHVELCREGKNLLKHFRFRDLEEDPYLPG Iduronate 2-sulfatase 14 kDa …: NPRELIAYSQYPRPSDIPQWNSDKPSLKDIKIMGYSIRTIDYRYTVWVGFNPDEFLANFSDIHAGELYFVDSDPLQDHNMYNDSQGGDLFQLLMP | – | – | 11.9 μmol/min per mg | 4.5 | 4 µM | 80 μmol/min per mg | – | – | – | – | – | – | – | – | – | – | – |
